Laboratory results as given in patent US20160166613A1.

Assays:
[1] = target: CD19-CAR-FRBl2 (CD19 chimeric antigen receptor with two tandem FRBl domains, coexpressed with iCaspase9 from iC9-CAR(19).FRBl2); experiment: cell-based or functional assay
[2] = target: Her2-CAR-FRBl2 (Her2 chimeric antigen receptor with two tandem FRBl domains fused to the carboxy terminus); experiment: cell-based or functional assay
[3] = target: CD19-CAR-FRBl2 (CD19 chimeric antigen receptor with two tandem FRBl domains, coexpressed with iCaspase9 from iC9-CAR(19).FRBl2)

Sequence of CD19-CAR-FRBl2 (CD19 chimeric antigen receptor with two tandem FRBl domains, coexpressed with iCaspase9 from iC9-CAR(19).FRBl2) (chain, as listed by the source mutant limits assumed): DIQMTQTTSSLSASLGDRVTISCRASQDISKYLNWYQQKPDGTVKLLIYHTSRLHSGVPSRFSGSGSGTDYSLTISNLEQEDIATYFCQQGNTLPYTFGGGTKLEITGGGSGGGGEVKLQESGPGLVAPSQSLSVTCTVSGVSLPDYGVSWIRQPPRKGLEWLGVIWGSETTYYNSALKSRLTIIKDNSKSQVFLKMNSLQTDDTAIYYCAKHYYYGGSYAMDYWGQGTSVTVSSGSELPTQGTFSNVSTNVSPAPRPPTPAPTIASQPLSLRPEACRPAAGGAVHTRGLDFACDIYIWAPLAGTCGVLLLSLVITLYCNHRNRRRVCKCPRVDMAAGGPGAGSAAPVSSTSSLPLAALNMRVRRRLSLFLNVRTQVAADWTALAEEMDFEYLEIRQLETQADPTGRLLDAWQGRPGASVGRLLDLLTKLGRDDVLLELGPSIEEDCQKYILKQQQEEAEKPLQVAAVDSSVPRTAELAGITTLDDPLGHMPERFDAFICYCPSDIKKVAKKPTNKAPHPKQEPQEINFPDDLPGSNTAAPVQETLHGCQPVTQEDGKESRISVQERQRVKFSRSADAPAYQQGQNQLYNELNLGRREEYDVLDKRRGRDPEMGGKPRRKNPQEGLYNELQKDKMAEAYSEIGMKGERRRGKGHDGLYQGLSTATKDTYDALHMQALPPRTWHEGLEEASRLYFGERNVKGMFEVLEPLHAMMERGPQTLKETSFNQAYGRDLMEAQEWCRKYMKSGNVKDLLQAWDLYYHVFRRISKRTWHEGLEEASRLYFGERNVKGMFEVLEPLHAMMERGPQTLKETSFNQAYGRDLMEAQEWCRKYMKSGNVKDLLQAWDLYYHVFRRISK
Sequence of Her2-CAR-FRBl2 (Her2 chimeric antigen receptor with two tandem FRBl domains fused to the carboxy terminus) (chain, as listed by the source mutant limits assumed): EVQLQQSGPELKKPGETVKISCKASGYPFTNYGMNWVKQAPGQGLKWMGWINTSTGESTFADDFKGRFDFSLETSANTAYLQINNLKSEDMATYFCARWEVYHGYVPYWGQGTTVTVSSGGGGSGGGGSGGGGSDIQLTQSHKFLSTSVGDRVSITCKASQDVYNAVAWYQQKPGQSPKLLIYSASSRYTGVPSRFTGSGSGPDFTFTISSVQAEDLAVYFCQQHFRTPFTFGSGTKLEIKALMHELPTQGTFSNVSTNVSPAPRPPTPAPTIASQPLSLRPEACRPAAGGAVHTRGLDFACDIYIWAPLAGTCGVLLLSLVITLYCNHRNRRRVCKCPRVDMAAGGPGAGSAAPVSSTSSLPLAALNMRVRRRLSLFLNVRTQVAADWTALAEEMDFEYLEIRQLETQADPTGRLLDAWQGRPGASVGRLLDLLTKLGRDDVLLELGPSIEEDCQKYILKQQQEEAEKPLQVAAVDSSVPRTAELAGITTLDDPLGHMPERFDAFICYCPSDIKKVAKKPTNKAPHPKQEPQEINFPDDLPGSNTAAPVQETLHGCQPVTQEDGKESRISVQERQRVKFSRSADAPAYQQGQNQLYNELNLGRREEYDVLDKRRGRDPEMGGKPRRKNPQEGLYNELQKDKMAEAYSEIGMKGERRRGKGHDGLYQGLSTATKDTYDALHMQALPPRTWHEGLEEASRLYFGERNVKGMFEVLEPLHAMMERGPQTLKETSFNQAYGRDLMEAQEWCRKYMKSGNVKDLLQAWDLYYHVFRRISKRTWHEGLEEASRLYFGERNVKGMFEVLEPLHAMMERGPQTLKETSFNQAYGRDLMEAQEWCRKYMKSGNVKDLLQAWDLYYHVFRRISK

## inducible Caspase-9 (FKBP12v36 - SGGGSG linker - dCaspase9) (enzyme)
[1]
  SEAP activity (constitutive SRα-SEAP reporter in transfected 293 cells, overnight with half-log dilutions of rapamycin) (% decrease of SEAP activity): 50
[2]
  SEAP activity (constitutive SRα-SEAP reporter in transfected 293 cells, overnight with half-log dilutions of rapamycin) (% decrease of SEAP activity): 50
[3]
  IC50 (read off the curve): concentration of the dimerizer rapamycin (not of a protein) at half-maximal loss of SEAP activity, 293 cells expressing iC9.CAR(19)-FRBl2: 1 nM
